# Results reported in IntAct's records for PubMed 19081057.
# B1: E3 ubiquitin-protein ligase pellino homolog 2 (Homo sapiens), Q9HAT8 (parent)
# chain: MFSPGQEEHCAPNKEPVKYGELVVLGYNGALPNGDRGRRKSRFALYKRPKANGVKPSTVHVISTPQASKAISCKGQHSISYTLSRNQTVVVEYTHDKDTDMFQVGRSTESPIDFVVTDTISGSQNTDEAQITQSTISRFACRIVCDRNEPYTARIFAAGFDSSKNIFLGEKAAKWKNPDGHMDGLTTNGVLVMHPRGGFTEESQPGVWREISVCGDVYTLRETRSAQQRGKLVESETNVLQDGSLIDLCGATLLWRTADGLFHTPTQKHIEALRQEINAARPQCPVGLNTLAFPSINRKEVVEEKQPWAYLSCGHVHGYHNWGHRSDTEANERECPMCRTVGPYVPLWLGCEAGFYVDAGPPTHAFTPCGHVCSEKSAKYWSQIPLPHGTHAFHAACPFCATQLVGEQNCIKLIFQGPID
# Variants of: B1
# Conditions: with irak1_human IRAK1, P51617
# Chain of irak1_human IRAK1, P51617 (P51617 whole entry, looked up): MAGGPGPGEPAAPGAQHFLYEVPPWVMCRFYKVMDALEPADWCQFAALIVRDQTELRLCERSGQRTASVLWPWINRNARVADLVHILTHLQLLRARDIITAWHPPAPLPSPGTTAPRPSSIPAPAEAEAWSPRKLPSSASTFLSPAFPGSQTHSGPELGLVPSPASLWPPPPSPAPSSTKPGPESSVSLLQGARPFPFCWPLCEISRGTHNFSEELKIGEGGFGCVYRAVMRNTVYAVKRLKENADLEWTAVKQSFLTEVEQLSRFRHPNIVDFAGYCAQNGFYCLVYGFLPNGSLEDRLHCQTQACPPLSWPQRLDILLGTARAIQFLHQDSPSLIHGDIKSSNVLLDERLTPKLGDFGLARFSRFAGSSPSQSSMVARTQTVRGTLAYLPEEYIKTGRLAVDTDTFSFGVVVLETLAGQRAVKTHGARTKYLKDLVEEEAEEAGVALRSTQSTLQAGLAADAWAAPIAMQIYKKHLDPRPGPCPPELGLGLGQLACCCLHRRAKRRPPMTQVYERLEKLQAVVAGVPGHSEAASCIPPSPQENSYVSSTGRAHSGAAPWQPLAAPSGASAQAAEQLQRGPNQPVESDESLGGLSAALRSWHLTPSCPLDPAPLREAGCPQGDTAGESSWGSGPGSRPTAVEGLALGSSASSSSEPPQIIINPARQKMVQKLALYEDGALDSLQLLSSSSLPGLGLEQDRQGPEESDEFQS
row,Variant,effect of a mutation on the interaction
1,MFSPGQEEHCAPNKEPVKYGELVVLGYNGALPNGDRGRRKSRFALYKRPKANGVKPSTVHVISTPQASKAISCKGQHSISYTLSRNQTVVVEYTHDKDTDMFQVGASTESPIDFVVTDTISGSQNTDEAQITQSTISRFACRIVCDRNEPYTARIFAAGFDSSKNIFLGEKAAKWKNPDGHMDGLTTNGVLVMHPRGGFTEESQPGVWREISVCGDVYTLRETRSAQQRGKLVESETNVLQDGSLIDLCGATLLWRTADGLFHTPTQKHIEALRQEINAARPQCPVGLNTLAFPSINRKEVVEEKQPWAYLSCGHVHGYHNWGHRSDTEANERECPMCRTVGPYVPLWLGCEAGFYVDAGPPTHAFTPCGHVCSEKSAKYWSQIPLPHGTHAFHAACPFCATQLVGEQNCIKLIFQGPID [R106A],disrupting interaction
2,MFSPGQEEHCAPNKEPVKYGELVVLGYNGALPNGDRGRRKSRFALYKRPKANGVKPSTVHVISTPQASKAISCKGQHSISYTLSRNQTVVVEYTHDKDTDMFQVGRSTESPIDFVVTDTISGSQNTDEAQITQSTISRFACRIVCDRNEPYTARIFAAGFDSSKNIFLGEKAAKWKNPDGHMDGLTAAGVLVMHPRGGFTEESQPGVWREISVCGDVYTLRETRSAQQRGKLVESETNVLQDGSLIDLCGATLLWRTADGLFHTPTQKHIEALRQEINAARPQCPVGLNTLAFPSINRKEVVEEKQPWAYLSCGHVHGYHNWGHRSDTEANERECPMCRTVGPYVPLWLGCEAGFYVDAGPPTHAFTPCGHVCSEKSAKYWSQIPLPHGTHAFHAACPFCATQLVGEQNCIKLIFQGPID [T187A;N188A],disrupting interaction
